Consider one molecule from US20090081234A1 (published 2009).

The assay has as its target recombinant human TNFα (human, UniProt P01375 77-233). The experiment in a line: cell-based or functional assay.

Chain of recombinant human TNFα (P01375 77-233 limits assumed): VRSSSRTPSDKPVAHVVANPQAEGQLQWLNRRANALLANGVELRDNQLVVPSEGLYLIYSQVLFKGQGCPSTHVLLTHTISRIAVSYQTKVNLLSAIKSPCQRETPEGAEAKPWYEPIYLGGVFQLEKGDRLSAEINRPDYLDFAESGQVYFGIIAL

B1: TNV196 (antibody, V domains shown)
VH: QVQLVESGGGVVQPGRSLRLSCAASGFTFSSYAMHWVRQAPGKGLEWVAFISYDGSNKKSADSVKGRFTVSRDNSKNTLFLQMNSLRAEDTAVFYCARDRGIGAGGNYYYYGMDVWGQGTTVTVSS
VL: EIVLTQSPATLSLSPGERATLSCRASQSVYSYLAWYQQKPGQAPRLLIYDASNRATGIPARFSGSGSGTDFTLTISSLEPEDFAVYYCQQRSNWPPFTFGPGTKVDIK
For the molecule B1, the “neutralizing TNFα bioactivity” value is 4 fold.
